Assay results from publication PMC5001591.

Tests used:
Settings in all cases: EMSA: 4 nM 32P-RNA, 1X RNA Structure Buffer, 1 ug yeast RNA in 10 ul, 37 C 15 min (plus 1 h room temperature with mRNA); native 6% PAGE, 0.5X TBE, 4 C; pH and …
Hfq [1] = target: Hfq (UniProt P0A6X3); test: EMSA
Hfq [2] = target: Hfq (UniProt P0A6X3); test: footprinting (RNase T1)
Hfq [3] = test: EMSA

Chain of Hfq (UniProt P0A6X3) (P0A6X3 2-102): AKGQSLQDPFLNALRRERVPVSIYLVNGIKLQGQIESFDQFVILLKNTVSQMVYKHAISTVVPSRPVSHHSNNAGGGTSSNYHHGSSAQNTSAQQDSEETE

| Substance | Kd (Hfq [1]) | binding (Hfq [2]) | Kd (Hfq [3]) |
| --- | --- | --- | --- |
| GGGAUUCAGGCAAUGAAUUACUUUUGCAAGCCAUCGCAUUCUCUUAUGUUAUUAAUGAGUUAUGCUGAUUUGUUAAGCAGUUUUAUCAGGCUUGAAAUGGCGUCCAGCCCCGACAGGUGAAUCGUCGGGGCUGAUUUUUUC [SdsN137] | 80 nM | binds |  |
| GGGUUCAAACUAUCACAUAAAUAAGAUUUAUAUAUAAUUUAUAUUAUUCAGGCAAUGAAUUACUUUUGCAAGCCAUCGCAUUCUCUUAUGUUAUUAAUGAGUUAUGCUGAUUUGUUAAGCAGUUUUAUCAGGCUUGAAAUGGCGUCCAGCCCCGACAGGUGAAUCGUCGGGGCUGAUUUUUUC [SdsN178] | 28 nM | binds |  |
| SdsN137 |  |  | 80 nM |
| SdsN178 |  |  | 28 nM |
